The source of these data is paper PMC1626105.

For the assay, the target named is Elongin B, expressed in Saos-2 cells (UniProt Q15370). Kind of assay: co-immunoprecipitation (IP: myc, IB: HA) with band densitometry. The following applies: Saos-2 cells co-transfected with LANA-myc and HA-Elo.BC; parent: est. 4.0; read off a plot.
Sequence of UniProt Q15370 (Q15370 whole entry): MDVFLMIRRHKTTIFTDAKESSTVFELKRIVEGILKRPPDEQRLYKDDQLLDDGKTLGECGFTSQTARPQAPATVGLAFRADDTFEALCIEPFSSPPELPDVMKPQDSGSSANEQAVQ
As to “KSHV latency-associated nuclear antigen (LANA), full length, myc-tagged C217G”, the response came to 0.4 RD.

On to “KSHV latency-associated nuclear antigen (LANA), full length, myc-tagged L213G”, for which the response was determined as 0.4 RD.

On to “KSHV latency-associated nuclear antigen (LANA), full length, myc-tagged L213P; C217F”, for which the response turned out to be 1.3 RD.
